# The nanobody polyreactivity screen of Harvey et al. (2022)
# Test: yeast display, Sf9 membrane polyspecificity reagent, FACS + sequencing; frameworks hold sequencing errors
# Procedure, shortened: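 Genes from sorted yeast were amplified by colony PCR, read by MiSeq 2 × 250 sequencing and filtered on CDR length. These cells carried a synthetic nanobody library in Saccharomyces cerevisiae BJ5465 and were sorted by FACS into low and high (top ~1%) gates on anti-HA and streptavidin fluorescence. Polyreactivity is labelled according to the gate of origin.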
row,Sequence,polyreactivity (PSR sort gate)
1,QVQLVESGGGLVQAGGSLRLSCAASGRTFYDYDMGCDRQAPGKERELVAAISGGDSTYYADSVKGRFTISRDNAKNTVYLQMNSLKPEDTAVYYCAVTPRGLPYGAYLLYYWGQGTQVTVSS,low polyreactivity
2,QVQLVESGGGLVQAGGSLRLSCAASGRTFYFNAMGWYRQAPGKERELVATITRRGGSTSYADSVKGRFTISRDNAKNTVYLQMNSLKPEDTAVYYCGNVSPPKFPERFDYWGQGTQVTVSS,low polyreactivity
3,QVQLVESGGGLVQAGGSLRLSCAASGRTFYFYTMGWYRQAPGKERELVATINWSGTSTYYADSVKGRFTISRDNAKNTVYLQMNSLKPEDTAVYYCAVRGGRYKYGYDYWGQGSQVTVSS,high polyreactivity
4,QVQLVESGGGLVQAGGSLRLSCAASGRTFYGNAMGWYRQAPGKEREFVAGISWRGGRTYYADSVKGRFTISRDNAKNTVYLQMNSLKPEDTAVYYCAASAGYRGRKQYHENGYWGQGTQVTVSS,high polyreactivity
5,QVQLVESGGGLVQAGGSLRLSCAASGRTFYGNGMGWYRQAPGKDRELVAAISWSGGSTYYADSVKGRFTISRDNAKNTVYLQMNSLKPEDTAVYYCAAAYRSFIIGRWYDYWGQGTQVTVSS,low polyreactivity
6,QVQLVESGGGLVQAGGSLRLSCAASGRTFYGNVMGWYRQAPGKERELVAAISSRGSRTYYADSVKGRFTISRDNAKNTVYLQMNSLKPEETAVYYCNTYVRNHGLAGPDDYWGQGTLVTVSS,high polyreactivity
7,QVQLVESGGGLVQAGGSLRLSCAASGRTFYGYAMGWYRPAPGKERELVAAIDRGGSTDYADSVKGRFTISRDNAKNTVYLQLNSLKTEDTAVYYCAKGYDYYGRRYYYWGQGTQVTVSS,high polyreactivity
8,QVQLVESGGGLVQAGGSLRLSCAASGRTFYGYAMGWYRQAPGKERELVASISWSTGSTHYADSVKGRFTISRDNAKNTVYLQMNSLKPEDTAVYYCAAPFWRDSYVQIDYDYWGQGTQVTVSS,low polyreactivity
9,QVQLVESGGGLVQAGGSLRLSCAASGRTFYGYAMGWYRQAPGKERELVASISYSGGNTYYADSVKGRFTISRDIAKNTVYLQMNSLKPEDTAVYYCAAEVVFFGWHYDYWGQGTQVTVSS,high polyreactivity
10,QVQLVESGGGLVQAGGSLRLSCAASGRTFYGYAMGWYRQAPGKERELVAVITRDGSTNYADSVKGRFTISRDNAKNTVYLQMNSLKPEDTAVYYCAAERLAYRVRWRYNQEDYWGQGTQVTVSS,high polyreactivity
11,QVQLVESGGGLVQAGGSLRLSCAASGRTFYHNAMGWYRQAPGKERELVASNRWSGGSTYADSVNGRFTISRDNAKNTVYLQMNSLKPEDTAVYYCARRYYRTGYWEPFIALNGYWGQGTKVTVSS,high polyreactivity
12,QVQLVESGGGLVQAGGSLRLSCAASGRTFYHYAMGWYRQAPGKEREFVAAISVSGGRTYYADSVKGRFTISRDNAKNTVYLQMNSLKPEDTAVYYCAARSGAQRGGGYWGQGTQVTVSS,high polyreactivity
13,QVQLVESGGGLVQAGGSLRLSCAASGRTFYIYAMGWYRQAPGKERELVAAISGSGGSTYYADSVKGRFTISRDNAKNTVYFQMNSLKPEDTAVYYCATKLRRSRYVRYDYWGQGTQVTVSS,high polyreactivity
14,QVQLVESGGGLVQAGGSLRLSCAASGRTFYIYAMGWYRQAPGKERELVAAITSVGSTNYADSVKGRFTISRDNAKNTVYLQMNSLKPEDTAVYYCAAASTEGTSGDYDYWGQGTQVTVSS,low polyreactivity
15,QVQLVESGGGLVQAGGSLRLSCAASGRTFYIYTMGWYRQAPGKERELVAAISSSGDSTYYADSVKGRFTISRDNAKNTVFLQMNPLKPEDTAVYYCAAYPTYPDEYWGQGTQVTVSS,low polyreactivity
16,QVQLVESGGGLVQAGGSLRLSCAASGRTFYKNTMGWYREAPGKEREMVATISQRGGSTYYADSVKGRFTISRDNAKNTVFLQMNSLKPEDTAVYYCYARHYYIWWRSPTRTAMNYWGQGTQVTVSS,high polyreactivity
17,QVQLVESGGGLVQAGGSLRLSCAASGRTFYKNTMGWYRQAPGKERELVAGISQRGGRTYYADSVKGRFTISRDNANYTVYLQMNSLKPEDTAVYYCAVRSYGHGFDYWGQGNQVTVSS,high polyreactivity
18,QVQLVESGGGLVQAGGSLRLSCAASGRTFYKYTMGWYRQAPGKERELVAAITTSGGGTYYADSVKGRFTISRDNAKNTVYIQMNSLKPEDTAVYYCAARYRELRTEYYYWGQGTQVTVSA,high polyreactivity
19,QVQLVESGGGLVQAGGSLRLSCAASGRTFYLNAMGWYRQAPGKERELVAAISRNGGSTYYADSVKGRFTISRDNAKNTVYLQMNSLKPEDTAVYYCNKNWLGWADPSLDKRYDYWGQGTQVTVSS,high polyreactivity
20,QVQLVESGGGLVQAGGSLRLSCAASGRTFYLNAMGWYRQAPGKERELVAAITSSGGRTYYADSVKGRFTISRDNAKNTVYLQMNSLKPEDTAVYYCAAVVSSKPSFYWGQGTQVTVSS,low polyreactivity
21,QVQLVESGGGLVQAGGSLRLSCAASGRTFYLYAMGWYRQAPGKEREFVAAISKRGGSTYYADSVKGRFTISRDNAKNTVYLQMNSLKPEDTAVYYCAAEVFRYRLNQTPTYRGDYWGQGTQVTVSS,high polyreactivity
22,QVQLVESGGGLVQAGGSLRLSCAASGRTFYLYAMGWYRQAPGKERELVAAITSAGSTNYADSVKGRFTISRDNAKNTVYLQMNSLKPEDSAVYYCNAYKRGYLYRYNYWGQGTQVTLSS,high polyreactivity

row,Sequence,polyreactivity (PSR sort gate)
1,QVQLVESGGGLVQAGGSLRLSCAASGRTFYLYAMGWYRQAPGKERELVAAITSGGSTYYADSVKGRFTISRDNAKNTVYLQMNSLKPEDTAVYYCAAYAYLTAGTSRRRGYWGQGTQVTVSS,high polyreactivity
2,QVQLVESGGGLVQAGGSLRLSCAASGRTFYLYAMVCYRQAPGKERELVAAITNRGGSTYYADSVKGRFTISRDNAKNTVYLQMNSLKPEDTAVYYCAAQVSVYRGGYGYWGQGTQVTVSS,high polyreactivity
3,QVQLVESGGGLVQAGGSLRLSCAASGRTFYLYTMGWYRQAPGKERELVAAISRGGRTYADSVKGRFTISRDNAKNTVYLQMNSLKPDDTAVYYCAAESVYHGWSYQHGKGDYWGQGTQVTVSS,low polyreactivity
4,QVQLVESGGGLVQAGGSLRLSCAASGRTFYLYTMGWYRQAPGKERELVAAISRGGRTYADSVKGRFTISRDNAKNTVYLQMNSLKPEDTAVYYCAAESVYQGWSYQHGKGDYWGQGTQVTVSS,low polyreactivity
5,QVQLVESGGGLVQAGGSLRLSCAASGRTFYNYAMGWYRQAPGKERELVAAISWSDGTTYYADSVKGRFTISRDNAKNTVYLQMNSLKPEDTAVYYCAAEFESSFALGFYYWGQGTQVTVSS,high polyreactivity
6,QVQLVESGGGLVQAGGSLRLSCAASGRTFYNYAMGWYRQAPGKERELVAAITRGGSTYYADSVKGRFTISRDNAKNTVYLQMNSLKPEDTAVYYCNAYYYIPFEGRGYSKMDYWGQGTQVTVSS,high polyreactivity
7,QVQLVESGGGLVQAGGSLRLSCAASGRTFYNYAMGWYRQAPGKERELVASIRKNGGSTYYADSVKGRFTISRDNAKNTVYLQMNSLKPEDTAVYYCDARYWGISRIFPSKYDYWGQGTQVTVSS,high polyreactivity
8,QVQLVESGGGLVQAGGSLRLSCAASGRTFYPNAMGWYRQAPGKERELVAAITWRSGSTYYADSVKGRFTISRDNAKNTVYLPMNSLKPEDTAVYYCNADSDYPYYPGKFDYWGQGTQVTVSS,low polyreactivity
9,QVQLVESGGGLVQAGGSLRLSCAASGRTFYPYAMGWYRQAPGKERELVAAIRSSGGTTYYADSVKGRFTISRDNAKNTVYLQMNSLKPEDTAVYYCAAYVDRQGGYYWGQGTQVTVSS,high polyreactivity
10,QVQLVESGGGLVQAGGSLRLSCAASGRTFYPYAMGWYRQAPGKERELVAAISSSGGSTYYADSVKGRFTISRDNAKNTVYLQMNSLKPEDTAVYYCAAAVYLQYLDDPTYGYWGQGTQVTVSS,high polyreactivity
11,QVQLVESGGGLVQAGGSLRLSCAASGRTFYPYAMGWYRQAPGKERELVAAITISVGSTYYADSVKGRFTISRDNAKNTVYLQMNSLNPEDTAVYYCAAANTPEYDYWGQGTQVTVSS,low polyreactivity
12,QVQLVESGGGLVQAGGSLRLSCAASGRTFYPYAMGWYRQAPGKERELVARISRGGRTNYADSVKGRFTISRDNAKNTVYLQMNSLKPEDTAVYYCAADYYGSYFITEDYWGQGTQVTVSS,low polyreactivity
13,QVQLVESGGGLVQAGGSLRLSCAASGRTFYPYARGWYREAPGKERELVAAISSNGVLTYYADSVKGRFTISRDNAKKSVYLQMNSLKPEDTAVYYCAARKPYVYHLDSWGQGTQVTVSS,high polyreactivity
14,QVQLVESGGGLVQAGGSLRLSCAASGRTFYRKAMGWYIQAPGKEREFVAVISVSGGSTYYADSVKGRFTISRDNAKITVYLQMNSLKPEDTAVYYCAKRGPVRKTAYDYWGQGTQVTVSS,low polyreactivity
15,QVQLVESGGGLVQAGGSLRLSCAASGRTFYRNAMGWYIQAPGKERELVAAITWSGVSTYYADSVKGRFTISRDNAKNTVYLQMNSLKPEDTAVYYCARGRVLRNGHYFQLRNYDYWGQGTQVTVSS,high polyreactivity
16,QVQLVESGGGLVQAGGSLRLSCAASGRTFYRNAMGWYRQAPGIERELVAVISQRGGRTFYADSVKGRFTISRDNAKNTVYLQMNSLKPEDTAVYYCAAPTQSYAHQGFGYWGQGTQVTVSS,high polyreactivity
17,QVQLVESGGGLVQAGGSLRLSCAASGRTFYRNAMGWYRQAPGKERELVAAITTSGGRTYYADSVKGRFTISRDNAKNTVYLQMNSLKPEDTAVYYCNAVYYGRTYASGYDYWGQGTQVTVSS,high polyreactivity
18,QVQLVESGGGLVQAGGSLRLSCAASGRTFYRNAMGWYRQAPGKERELVATINSGGSTHYADSVKGRFTISRDNAKNSVYLQMNSLKPEDTAVYYCAARSPSYRGSLSYYWGHGTQVTVSS,high polyreactivity
19,QVQLVESGGGLVQAGGSLRLSCAASGRTFYRNAMGWYRQAPGKERELVATITRRGGSTYYADSVKGRFTISRDNAKNTVYLQMISLKPEDTAVYYCAAGSKDLYRPYDYWGQGTQVTVSS,high polyreactivity
20,QVQLVESGGGLVQAGGSLRLSCAASGRTFYRNAMGWYRQAPGKERELVATITRRGGSTYYADSVKGRFTISRDNAKNTVYLQMNSLKPEDTAVYYCAAGSKDLYRPYDYWGQGTQVTVSS,high polyreactivity
21,QVQLVESGGGLVQAGGSLRLSCAASGRTFYRNDMVWYRQSPGKERELVARITSGGSTNYADSVKGRFTISRDNAKNTVYLQMNSLKPEDTGVYYCAAVSRYYPYGYWGQGTQVTVSS,high polyreactivity
